Reference: paper PMC9890228 (The EMBO Journal, 2022)

Target: T1, FANCD2 (human, UniProt Q9BXW9 1-1451)
T1 construct: The cryo-EM methods say only 'purified FANCD2'; The ubiquitination and deubiquitination reactions used N-terminally FLAG-tagged FANCD2; the functional rows use this molecule for it (for the USP1 rows in its K561-ubiquitinated form, D2Ub); Constructs as in Arkinson et al 2018 and Rennie et al 2020; also called D2^WT; source: Sf21 insect cells, purified (NiNTA, anion exchange, gel filtration)
Test: cryo-EM structure; ubiquitinated His6-V5-FANCI mixed with FANCD2 at 1:1 molar ratio, 61 bp dsDNA added at 1:1; 20 mM Tris pH 8.0, 150 mM NaCl, 2 mM DTT; 4.1 Å global resolution
Conditions: both partners purified

T1 sequence (Q9BXW9 whole entry): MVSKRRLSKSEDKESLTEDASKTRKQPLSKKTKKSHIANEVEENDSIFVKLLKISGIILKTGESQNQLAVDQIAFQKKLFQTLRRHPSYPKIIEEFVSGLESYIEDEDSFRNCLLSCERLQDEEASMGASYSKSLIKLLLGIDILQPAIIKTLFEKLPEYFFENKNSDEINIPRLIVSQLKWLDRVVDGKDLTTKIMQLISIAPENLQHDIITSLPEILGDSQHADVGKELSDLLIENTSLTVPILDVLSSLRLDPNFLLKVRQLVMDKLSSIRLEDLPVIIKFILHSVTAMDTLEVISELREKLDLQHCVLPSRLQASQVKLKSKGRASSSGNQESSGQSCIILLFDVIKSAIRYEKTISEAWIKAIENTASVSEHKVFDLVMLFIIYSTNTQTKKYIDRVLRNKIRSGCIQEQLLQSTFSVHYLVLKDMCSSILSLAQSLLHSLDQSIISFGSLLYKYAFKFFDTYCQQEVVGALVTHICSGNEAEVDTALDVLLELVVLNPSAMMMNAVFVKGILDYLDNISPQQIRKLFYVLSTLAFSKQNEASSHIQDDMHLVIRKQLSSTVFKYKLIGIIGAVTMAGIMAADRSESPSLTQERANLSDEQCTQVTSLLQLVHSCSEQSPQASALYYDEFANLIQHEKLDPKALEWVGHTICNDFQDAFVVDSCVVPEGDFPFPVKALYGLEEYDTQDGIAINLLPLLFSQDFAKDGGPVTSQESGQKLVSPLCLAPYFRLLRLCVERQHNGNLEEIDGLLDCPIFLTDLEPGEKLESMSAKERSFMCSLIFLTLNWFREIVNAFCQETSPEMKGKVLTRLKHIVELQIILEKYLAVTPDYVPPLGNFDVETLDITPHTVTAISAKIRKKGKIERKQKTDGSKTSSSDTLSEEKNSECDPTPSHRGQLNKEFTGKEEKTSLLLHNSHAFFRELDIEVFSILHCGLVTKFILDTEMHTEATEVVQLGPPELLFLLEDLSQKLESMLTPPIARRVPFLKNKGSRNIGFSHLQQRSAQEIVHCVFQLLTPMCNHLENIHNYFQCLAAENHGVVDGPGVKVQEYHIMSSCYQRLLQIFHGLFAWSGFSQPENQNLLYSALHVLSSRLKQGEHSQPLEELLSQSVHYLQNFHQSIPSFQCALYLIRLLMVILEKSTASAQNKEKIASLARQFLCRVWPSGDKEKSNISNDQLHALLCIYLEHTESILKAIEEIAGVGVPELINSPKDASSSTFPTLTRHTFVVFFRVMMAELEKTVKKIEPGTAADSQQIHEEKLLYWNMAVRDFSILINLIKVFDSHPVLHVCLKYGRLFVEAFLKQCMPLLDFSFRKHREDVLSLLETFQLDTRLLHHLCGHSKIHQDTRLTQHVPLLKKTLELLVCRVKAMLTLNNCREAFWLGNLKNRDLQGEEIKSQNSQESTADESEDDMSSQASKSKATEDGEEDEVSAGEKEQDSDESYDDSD

- binding result: binds
B1: FANCI (the FANCI chain of ubiquitinated His6‐V5‐FANCI) (natural protein, human, UniProt Q9NVI1 1-1328, looked up)
chain: MDQKILSLAAEKTADKLQEFLQTLREGDLTNLLQNQAVKGKVAGALLRAIFKGSPCSEEAGTLRRRKIYTCCIQLVESGDLQKEIASEIIGLLMLEAHHFPGPLLVELANEFISAVREGSLVNGKSLELLPIILTALATKKENLAYGKGVLSGEECKKQLINTLCSGRWDQQYVIQLTSMFKDVPLTAEEVEFVVEKALSMFSKMNLQEIPPLVYQLLVLSSKGSRKSVLEGIIAFFSALDKQHNEEQSGDELLDVVTVPSGELRHVEGTIILHIVFAIKLDYELGRELVKHLKVGQQGDSNNNLSPFSIALLLSVTRIQRFQDQVLDLLKTSVVKSFKDLQLLQGSKFLQNLVPHRSYVSTMILEVVKNSVHSWDHVTQGLVELGFILMDSYGPKKVLDGKTIETSPSLSRMPNQHACKLGANILLETFKIHEMIRQEILEQVLNRVVTRASSPISHFLDLLSNIVMYAPLVLQSCSSKVTEAFDYLSFLPLQTVQRLLKAVQPLLKVSMSMRDCLILVLRKAMFANQLDARKSAVAGFLLLLKNFKVLGSLSSSQCSQSLSVSQVHVDVHSHYNSVANETFCLEIMDSLRRCLSQQADVRLMLYEGFYDVLRRNSQLANSVMQTLLSQLKQFYEPKPDLLPPLKLEACILTQGDKISLQEPLDYLLCCIQHCLAWYKNTVIPLQQGEEEEEEEEAFYEDLDDILESITNRMIKSELEDFELDKSADFSQSTSIGIKNNICAFLVMGVCEVLIEYNFSISSFSKNRFEDILSLFMCYKKLSDILNEKAGKAKTKMANKTSDSLLSMKFVSSLLTALFRDSIQSHQESLSVLRSSNEFMRYAVNVALQKVQQLKETGHVSGPDGQNPEKIFQNLCDITRVLLWRYTSIPTSVEESGKKEKGKSISLLCLEGLQKIFSAVQQFYQPKIQQFLRALDVTDKEGEEREDADVSVTQRTAFQIRQFQRSLLNLLSSQEEDFNSKEALLLVTVLTSLSKLLEPSSPQFVQMLSWTSKICKENSREDALFCKSLMNLLFSLHVSYKSPVILLRDLSQDIHGHLGDIDQDVEVEKTNHFAIVNLRTAAPTVCLLVLSQAEKVLEEVDWLITKLKGQVSQETLSEEASSQATLPNQPVEKAIIMQLGTLLTFFHELVQTALPSGSCVDTLLKDLCKMYTTLTALVRYYLQVCQSSGGIPKNMEKLVKLSGSHLTPLCYSFISYVQNKSKSLNYTGEKKEKPAAVATAMARVLRETKPIPNLIFAIEQYEKFLIHLSKKSKVNLMQHMKLSTSRDFKIKGNILDMVLREDGEDENEEGTASEHGGQNKEPAKKKRKK
modifications: K523 isopeptide-linked to G76 of ubiquitin
notes: The FANCI chain of m1, written on its own for its contacts with FANCD2 in the structure; source: Sf21 insect cells, purified (NiNTA, anion exchange, gel filtration); ubiquitinated in vitro; not shown: His6, N-terminal, kept; V5, N-terminal, kept
